Assay results: US20200181210A1, “MODIFIED CYCLIC PEPTIDES AND THERAPEUTIC USE THEREOF” (THE BROAD INSTITUTE, INC., priority 2017, published 2020)

Tested on: trypsin
Test: trypsin protease digestion resistance of cyclotides (SDS-PAGE)
Description: Protease conditions were tested on cyclotides and variants. Samples were subjected to 10 μg of trypsin at 37° C. for up to 24 hours. […] Four elutions were collected in 200 μL fractions. Protein content of bound/eluted material was quantified based upon detection of fluorescently labeled lysines within bound/eluted sequences.
The cyclotides and empty yeast vector were then subjected to 10 μg trypsin protease digestion at 37° C. for up to 24 hours.

With “pYES-MCoTI: native (natural) MCoTI cyclotide expressed in yeast from the pYES vector (cyclo(GGVCPKILQRCRRDSDCPGACICRGNGYCGSGSD); also: cyclic cystine knot, three disulfides CysI-IV, II-V, III-VI)” the “resistance to trypsin digestion” value (10 μg trypsin, 37° C., up to 24 hours, SDS-PAGE) was “resistant to trypsin digestion” and the resistance towards trypsin (trypsin exposure up to 18 hrs (FIG. 28)) was “resistance towards trypsin up to 18 hrs with no change in levels”.
